Laboratory results as given in patent US8541373B2, “BChE albumin fusions for the treatment of cocaine abuse” (priority 2009, dated 2013).
“And” between values parts separate entries of the source, which are not always exact repeats. Equal values may be shown once. Read-outs that look alike come from different tables or passages of the source.

How the values were obtained:
cocaine = assay: AlbuBChE PK/PD analysis, sigmoidal inhibitory effect Emax model (cocaine AUC)
Source text: AlbuBChE PK/PD relationship was defined using the computer software WinNonlin Professional (Version 4.0.1 Pharsight Corporation, USA). Specifically the direct sigmoidal inhibitory Effect Emax model was use in which maximum effect (Emax) as measured by cocaine AUC was assumed at AlbuBChE concentration of zero. The model equation can be described as follows: Inhibitory Effect Sigmoid Emax, C=0 at Emax, C=infinity at Eo E=Emax−(Emax−E0)*(C**Gamma/(C**Gamma+EC50**Gamma))
The PD parameter used in the analysis was cocaine AUC. PK parameters used in the model were AlbuBChE plasma concentrations at 2, 48, 96, 120, and 240 hr post-AlbuBChE dose. Due to the fact that AlbuBChE concentration was not measured at 2 hr post-AlbuBChE dose, the concentration at 3 hr postdose was used in the analysis with the assumptions that AlbuBChE concentration at 3 hr post AlbuBChE dose may reflect AlbuBChE conc. at 2 hr post AlbuBChE dose.

[1] = Previous pharmacokinetic study, SC, IM and IV administration (bioavailability); conditions: previous study in cynomolgus monkeys
Method: AlbuBChE absolute bioavailability for IM and Sc routes of administration was calculated relative to IV at the […] dose level.
In a previous study, AlbuBChE pharmacokinetic profile was evaluated in cynomolgus monkeys. In that study, the test article was administered SC (7.8, 2.4 and 0.78 mg/kg), IM (2.4 mg/kg) and IV (2.4 mg/kg). […] In addition, AlbuBChE IM dose levels of 0.2, 1 and 5 mg/kg were selected to define AlbuBChE pharmacodynamic range in cynomolgus monkeys.

[2] = rats, i.v. injection, cited from earlier work
[3] = test system: cocaine self-administration; assay: Cocaine self-administration; format: in vivo, squirrel monkeys (Saimiri sciureus)
Source text: Adult male squirrel monkeys (Saimiri sciureus) weighing 0.8 to 1.2 kg were used as subjects. All monkeys were individually housed in a humidity and temperature controlled room and had free access to water. The monkeys were fed following any experimental procedures an amount of food (Lab Diet 5045, PMI Nutrition International, Richmond, Ind.; Banana Softies, Bio-Serv, Frenchtown, N.J.) determined to maintain a stable weight. Fresh fruit, vegetables and environmental enrichment were also provided daily. The animal care facilities were fully accredited by AAALAC and all experiments were approved by the NIDA Intramural Research Program Animal Care and Use Committee.
Three monkeys were trained to self-administer 30 μg/kg/inj i.v. cocaine. Details of the self-administration training procedure can be found elsewhere (Justinova et al., 2003). In brief, the monkeys were placed in a seated position in a Plexiglas restraint chair. The chair was enclosed in a larger acoustical chamber. On the front wall of the restraint chair there was a response lever and stimulus lights. A green light signaled the beginning of the session. The monkeys were trained to make 10 responses (fixed-ratio, FR, 10) to receive an i.v. injection of cocaine. The injection of cocaine was accompanied by the green light, turning off and a yellow stimulus light being presented for 2 sec. Following each cocaine injection there was also a 60-sec timeout. At the end of the timeout, the green light was turned on. Sessions lasted for 1 hour. Occasionally, saline was substituted for cocaine. Following the establishment of stable cocaine self-administration and reliable extinction of responding following saline substitution, AlbuBChE (5 mg/kg, i.m.) or its vehicle (i.m.) were given 2 hours prior to a self-administration session. Self-administration responding was then measured for 5 consecutive days. Following each drug test or saline substitution, responding for 30 μg/kg/inj cocaine was reestablished for at least 5 days. Following reinstatement testing (see below), the dose of cocaine available for self-administration was lowered to 10 μg/kg/inj and the effect of AlbuBChE (5 mg/kg, i.m.) was again determined.
The blood level data were analyzed separately for each metabolite and time point (5 or 30 min). […] The self-administration data were analyzed separately for response rate or injections following either vehicle treatment or AlbuBChE treatment. Control data were included in the analysis by taking the average of the last 3 days for the immediately preceding baseline condition. A within subjects ANOVA was then performed with follow-up tests contrasting days following vehicle or AlbuBChE with the control. For the reinstatement tests, a two-way ANOVA was performed for both response rate and injections, with time post vehicle or AlbuBChE as the within-subjects factor and pretreatment (vehicle or AlbuBChE) as the between subjects factor. Follow-up contrast compared vehicle and AlbuBChE at each time point.

[4] = 5 mg/kg i.m., 30 μg/kg/inj cocaine, tracked 5 days

Substance: AlbuBChE
- AlbuBChE Conc. used in PK/PD analysis, individual animals (cocaine; 0.2 mg/kg IM, time 2 hr): 107 ng/mL and 257 ng/mL and 196 ng/mL
- AlbuBChE Conc. used in PK/PD analysis, individual animals (cocaine; 0.2 mg/kg IM, time 48 hr): 0 ng/mL and 66.4 ng/mL and 80.7 ng/mL
- AlbuBChE Conc. used in PK/PD analysis, individual animals (cocaine; 0.2 mg/kg IM, time 96 hr): 0 ng/mL (2×) and 30 ng/mL
- AlbuBChE Conc. used in PK/PD analysis, individual animals (cocaine; 0.2 mg/kg IM, time 120 hr): 0 ng/mL
- AlbuBChE Conc. used in PK/PD analysis, individual animals (cocaine; 0.2 mg/kg IM, time 240 hr): 0 ng/mL
- Cocaine AUC(0-t), individual animals (cocaine; 0.2 mg/kg IM, cocaine 1 mg/kg IV 2 hr post-AlbuBChE): 13317 ng·min/mL and 10812 ng·min/mL and 11504 ng·min/mL
- Cocaine AUC(0-t), individual animals (cocaine; 0.2 mg/kg IM, cocaine 1 mg/kg IV 48 hr post-AlbuBChE): 8550 ng·min/mL and 7315 ng·min/mL and 7276 ng·min/mL
- Cocaine AUC(0-t), individual animals (cocaine; 0.2 mg/kg IM, cocaine 1 mg/kg IV 96 hr post-AlbuBChE): 13936 ng·min/mL and 8978 ng·min/mL and 10522 ng·min/mL
- Cocaine AUC(0-t), individual animals (cocaine; 0.2 mg/kg IM, cocaine 1 mg/kg IV 120 hr post-AlbuBChE): 11293 ng·min/mL and 11428 ng·min/mL and 12111 ng·min/mL
- Cocaine AUC(0-t), individual animals (cocaine; 0.2 mg/kg IM, cocaine 1 mg/kg IV 240 hr post-AlbuBChE): 13669 ng·min/mL and 12762 ng·min/mL and 14649 ng·min/mL
- AlbuBChE Conc. used in PK/PD analysis, individual animals (cocaine; 1 mg/kg IM, time 2 hr): 1362 ng/mL and 918 ng/mL and 1777 ng/mL
- AlbuBChE Conc. used in PK/PD analysis, individual animals (cocaine; 1 mg/kg IM, time 48 hr): 389 ng/mL and 363 ng/mL and 264 ng/mL
- AlbuBChE Conc. used in PK/PD analysis, individual animals (cocaine; 1 mg/kg IM, time 96 hr): 87 ng/mL and 132 ng/mL and 75 ng/mL
- AlbuBChE Conc. used in PK/PD analysis, individual animals (cocaine; 1 mg/kg IM, time 120 hr): 36 ng/mL and 72 ng/mL and 38 ng/mL
- AlbuBChE Conc. used in PK/PD analysis, individual animals (cocaine; 1 mg/kg IM, time 240 hr): 0 ng/mL
- Cocaine AUC(0-t), individual animals (cocaine; 1 mg/kg IM, cocaine 1 mg/kg IV 2 hr post-AlbuBChE): 6597 ng·min/mL and 9746 ng·min/mL and 7297 ng·min/mL
- Cocaine AUC(0-t), individual animals (cocaine; 1 mg/kg IM, cocaine 1 mg/kg IV 48 hr post-AlbuBChE): 6025 ng·min/mL and 5033 ng·min/mL and 6839 ng·min/mL
- Cocaine AUC(0-t), individual animals (cocaine; 1 mg/kg IM, cocaine 1 mg/kg IV 96 hr post-AlbuBChE): 9166 ng·min/mL and 9925 ng·min/mL and 11042 ng·min/mL
- Cocaine AUC(0-t), individual animals (cocaine; 1 mg/kg IM, cocaine 1 mg/kg IV 120 hr post-AlbuBChE): 10451 ng·min/mL and 11561 ng·min/mL and 12568 ng·min/mL
- Cocaine AUC(0-t), individual animals (cocaine; 1 mg/kg IM, cocaine 1 mg/kg IV 240 hr post-AlbuBChE): 14533 ng·min/mL and 13998 ng·min/mL and 14560 ng·min/mL
- AlbuBChE Conc. used in PK/PD analysis, individual animals (cocaine; 5 mg/kg IM, time 2 hr): 3740 ng/mL and 9627 ng/mL and 4923 ng/mL
- AlbuBChE Conc. used in PK/PD analysis, individual animals (cocaine; 5 mg/kg IM, time 48 hr): 1330 ng/mL and 2644 ng/mL and 1605 ng/mL
- AlbuBChE Conc. used in PK/PD analysis, individual animals (cocaine; 5 mg/kg IM, time 96 hr): 415 ng/mL and 733 ng/mL and 455 ng/mL
- AlbuBChE Conc. used in PK/PD analysis, individual animals (cocaine; 5 mg/kg IM, time 120 hr): 217 ng/mL and 326 ng/mL and 224 ng/mL
- AlbuBChE Conc. used in PK/PD analysis, individual animals (cocaine; 5 mg/kg IM, time 240 hr): 58 ng/mL and 71 ng/mL and 63 ng/mL
- Cocaine AUC(0-t), individual animals (cocaine; 5 mg/kg IM, cocaine 1 mg/kg IV 2 hr post-AlbuBChE): 4594 ng·min/mL and 3039 ng·min/mL and 2234 ng·min/mL
- Cocaine AUC(0-t), individual animals (cocaine; 5 mg/kg IM, cocaine 1 mg/kg IV 48 hr post-AlbuBChE): 3323 ng·min/mL and 2628 ng·min/mL and 3095 ng·min/mL
- Cocaine AUC(0-t), individual animals (cocaine; 5 mg/kg IM, cocaine 1 mg/kg IV 96 hr post-AlbuBChE): 6428 ng·min/mL and 6887 ng·min/mL and 6556 ng·min/mL
- Cocaine AUC(0-t), individual animals (cocaine; 5 mg/kg IM, cocaine 1 mg/kg IV 120 hr post-AlbuBChE): 7954 ng·min/mL and 9620 ng·min/mL and 10560 ng·min/mL
- Cocaine AUC(0-t), individual animals (cocaine; 5 mg/kg IM, cocaine 1 mg/kg IV 240 hr post-AlbuBChE): 11173 ng·min/mL and 13745 ng·min/mL and 13937 ng·min/mL
- AlbuBChE serum concentration that may result in 50% decrease in cocaine concentration (EC50) (cocaine; cynomolgus monkeys, sigmoidal inhibitory effect Emax model, PD parameter cocaine AUC): ~0.6 µg/mL
- Bioavailability ([1]; IM): 79%
- Bioavailability ([1]; SC): 35-39%
- Plasma half-life [2]: approximately 8 hours
- Plasma half-life ([2]; listed as BChE-albumin fusion): 8 h
- Duration of effect on cocaine self-administration ([3]; 30 μg/kg/inj cocaine, reduced effectiveness): ≥ 3 days
- Cocaine self-administration ([3]; 5 mg/kg i.m., 30 μg/kg/inj cocaine): reduced self-administration
- Self-administration injections vs baseline [3, 4]: significantly different from control on day 1 and 4
- Self-administration response rate vs baseline [3, 4]: different from control on days 1-4
- Self-administration response rate and injections ([3]; 5 mg/kg, 10 μg/kg/inj cocaine, 2 hrs following AlbuBChE): failed to reach significance
